# Assay results published in PMC9499402, “Crystal Structure of an Archaeal Tyrosyl-tRNA Synthetase Bound to Photocaged L-Tyrosine and Its Potential Application to Time-Resolved X-ray Crystallography” (International Journal of Molecular Sciences, 2022).
# B1: oNBTyrRS, O-(2-nitrobenzyl)-L-tyrosine-specific variant of Methanocaldococcus jannaschii tyrosyl-tRNA synthetase (Y32G, L65G, F108E, D158S, L162E, D286R) (enzyme, UniProt Q57834 1-306, looked up)
# chain: MDEFEMIKRNTSEIISEEELREVLKKDEKSAGIGFEPSGKIHLGHYLQIKKMIDLQNAGFDIIIGLADLHAYLNQKGELDEIRKIGDYNKKVFEAMGLKAKYVYGSEEQLDKDYTLNVYRLALKTTLKRARRSMELIAREDENPKVAEVIYPIMQVNSIHYEGVDVAVGGMEQRKIHMLARELLPKKVVCIHNPVLTGLDGEGKMSSSKGNFIAVDDSPEEIRAKIKKAYCPAGVVEGNPIMEIAKYFLEYPLTIKRPEKFGGDLTVNSYEELESLFKNKELHPMRLKNAVAEELIKILEPIRKRL
# notes: Methanocaldococcus jannaschii tyrosyl-tRNA synthetase (MjTyrRS), UniProt Q57834, with six substitutions; all 306 amino acid residues were modelled in the crystal structure; Residues of the TEV site may remain after cleavage; also called oNBTyr-tRNA synthetase; M. jannaschii oNBTyrRS; source: E. coli Rosetta2 (DE3), purified (HisTrap, TEV cleavage, HisTrap flow-through, desalting, HiTrap Q); not …
# Biological target: the molecule itself
# Assay: crystal structure; oNBTyrRS (10 mg/mL) co-crystallised with oNBTyr (1.4 mg/mL), sitting-drop vapor diffusion at 20 °C; reservoir 20% PEG300, 3% PEG8000, 10% glycerol, 100 mM Tris-HCl pH 8.0; dimer in the asymmetric unit; 2.79 Å
protein,measurement,value
B1,stoichiometry N,2
